Source: the DeepSol protein solubility set

Assay: soluble on expression in E. coli; label from the status in PepcDB or PDB records

Row | Sequence | soluble on expression in E. coli
1 | SVCAEAYNPDEEEDDAESRIIHPKTDDQRNRLQEACKDILLFKNLDPEQMSQVLDAMFEKLVKEGEHVIDQGDDGDNFYVIDRGTFDIYVKCDGVGRCVGNYDNRGSFGELALMYNTPRAATITATSPGALWGLDRVTFRRIIVKNNAKKRKMYESFIESLPFLKSLEVSERLKVVDVIGTKVYNDGEQIIAQGDSADSFFIVESGEVRITMKRKGKSDIEENGAVEIARCLRGQYFGELALVTNKPRAASAHAIGTVKCLAMDVQAFERLLGPCMEIMKRNIATYEEQLVALFGTNMDIVEPTA | soluble
2 | MEQKTENKWPLQFEVIEEIKQVGRWSAPSWRLGDIHLYEKVNETQDNVSLFERDLEIFRDERTDYRFNLSSQDPKLFFAFENDNDQLTPVMITASQSMIGQYMDGDYLVLSTAMPLPMQAWLEAYIGKHGELLEVRKKKRKGAGRASEQLPK | not soluble
3 | MPYEMKFKGVYVLAMEDNSSFKGKIEVGDTVTGVDGKSFKSSEELMNYIKAQKVNQKVTVQFIQDGKAKEATGKLIELPTDKKAGIGIGLTDHTLEHHHHHH | soluble
4 | MFDGEDLKKIFAMDGFLRNIEFEVSYISEGSIEIKVPLKENLMRVGDIMNGGAIMAISDAIGGLTVMTYGSVINQVTVNFNTEFIRPIGTGPVIFRSSMVRIGKNIAYVDVAAIDGNGQLCSKSMGTYYIYR | soluble
5 | MGLIFAKLWSLFCNQEHKVIIVGLDNAGKTTILYQFLMNEVVHTSPTIGSNVEEIVVKNTHFLMWDIGGQESLRSSWNTYYSNTEFIILVVDSIDRERLAITKEELYRMLAHEDLRKAAVLIFANKQDMKGCMTAAEISKYLTLSSIKDHPWHIQSCCALTGEGLCQGLEWMTSRIGVR | soluble
6 | MKRSAFFISDGTGITAETLGQSLLAQFENITFNKFTRPYIDSVEKARAMVQQINNAADKDDVRPIIFDTIVNQDIREILATSNGFMIDIFSTFLAPLEQELSSHSSYSVGKSHSIGHNSNYMERIEAVNFALDNDDGARTHYYDKADIILVGVSRCGKTPTCLYMAMQFGIRAANYPLTEDDMERLQLPPALKQHREKLFGLTIDPDRLTAIRHERKPNSRYSSYAQCEFEVREVESLFRRENIPNINSTHFSVEEISAKVLVEKGVERRFKLEHHHHHH | not soluble
7 | MAHHHHHHMKRWDEKLTLALRRGSGSDDVTPNPVSEALRNLEETMESIKRRLSQLEKCVERQRVAINEVRTNTSPFDDLLTKTNGDIQSIQQQLEYVVISLERERGIVTDHTEQLRLFVRESTRRDGGRSGLSDSDPSFLFLLATWLYRPVVDFANGCYVLLSPLIGTLQSLSLFNPDVQVRQTESGVYLNNAQPSEDLLSRLQKGQLDPVLTSKT | not soluble
8 | MGLRFPPKVLEHILSFIDSNEDRNSVSLVCKSWFETERKTRKRVFVGNCYAVSPAAVTRRFPEMRSLTLKGKPHFADYNLVPDGWGGYAWPWIEAMAAKSSSLEEIRMKRMVVTDECLEKIAASFKDFKVLVLTSCEGFSTDGIAAIAATCRNLRVLELRECIVEDLGGDWLSYFPESSTSLVSLDFSCLDSEVKISDLERLVSRSPNLKSLKLNPAVTLDGLVSLLRCAPQLTELGTGSFAAQLKPEAFSKLSEAFSNCKQLQSLSGLWDVLPEYLPALYSVCPGLTSLNLSYATVRMPDLVELLRRCSKLQKLWVMDLIEDKGLEAVASYCKELRELRVFPSEPDLDATNIPLTEQGLVFVSKGCRKLESVLYFCVQFTNAALFTIARKRPNLKCFRLCVIEPFAPDYKTNEPLDKGFKAIAEGCRDLRRLSVSGLLSDKAFKYIGKHAKKVRMLSIAFAGDSDLMLHHLLSGCESLKKLEIRDCPFGDTALLEHAAKLETMRSLWMSSCFVSFGACKLLSQKMPRLNVEVIDEHPPESRPESSPVERIYIYRTVAGPRMDTPEFVWTIHKNPENGVSHLAIK | not soluble
9 | MSEKDQSVNNTEEDFNVETEDNQNDTNIENSVSNTDNSEANASDSENNSEESIKDEESESQDTKIKELEKLANDNEEKYLRLYAEFENYKRRIQKENQINATYKAQGVLTDILPSIDNIERALQIEGDDESFKSLQKGVQMVHESLLRALKDNGLEEILAEGKEFDPNLHQAVVQDDNPDFKSGEVTQELQKGYKLKDRVLRPSMVKVNQ | soluble
10 | MIDNPTPKSSMTFKELYDEWLLVYEKEVQNSTYYKTTRAFEKHVLPVIGSTKLSDFTPMELQNFRNDLSEKLKFARKLFGMVRKVFNHAALLSYIQANPALPVTSQGIKKKVEELEHHHHHH | soluble
